The text below walks through data of PMC11383374.

The assay has as its target the protein biologic (purified DNASE1-Fc enzyme biologic analysed by size-exclusion chromatography with light scattering) (not stated (murine and human isoforms were made)) (UniProt P49183). As to the kind of experiment: SEC-MALS; size-exclusion chromatography with light scattering; two separate concentrations of sample loading; single peak; hydrodynamic radius 5.3 nm. (Size exclusion chromatography separates by hydrodynamic size, large species first.)

For orientation: stoichiometry N means the number of molecules, sites or subunits per partner or assembly.

As for “the protein biologic (purified DNASE1-Fc enzyme biologic analysed by size-exclusion chromatography with light scattering) (from UniProt P49183 23-284) (Fc fusion)”, the stoichiometry N came to 2.
